Measured values published in patent publication US9809653B2, “Anti-LAMP1 antibodies and antibody drug conjugates, and uses thereof” (SANOFI, priority 2012, dated 2017).
Substitutions are numbered along the chain they refer to. Blank lines part the entries; values can stand above or below the molecule they belong to.

Tests used:
Test in all cases: Binding onto membrane-anchored hybrid or mutated LAMP1 proteins (293-F cells) by flow cytometry
Design in all cases: species or system human/mouse
[1] = molecular target: T1, Hybrid LAMP1 / glycan-deleted LAMP1 transmembrane proteins (Homo sapiens, UniProt P11279, A93T/T85V/V91T); conditions: pXL6017 LAMP1_mseq5_ΔGYQTI; Table 18
T1 construct: expressed in transfected cells; host or cells: 293-F (HEK293-derived), transient transfection
T1 sequence (P11279 with tags, fused parts or gaps T85V/V91T/A93T): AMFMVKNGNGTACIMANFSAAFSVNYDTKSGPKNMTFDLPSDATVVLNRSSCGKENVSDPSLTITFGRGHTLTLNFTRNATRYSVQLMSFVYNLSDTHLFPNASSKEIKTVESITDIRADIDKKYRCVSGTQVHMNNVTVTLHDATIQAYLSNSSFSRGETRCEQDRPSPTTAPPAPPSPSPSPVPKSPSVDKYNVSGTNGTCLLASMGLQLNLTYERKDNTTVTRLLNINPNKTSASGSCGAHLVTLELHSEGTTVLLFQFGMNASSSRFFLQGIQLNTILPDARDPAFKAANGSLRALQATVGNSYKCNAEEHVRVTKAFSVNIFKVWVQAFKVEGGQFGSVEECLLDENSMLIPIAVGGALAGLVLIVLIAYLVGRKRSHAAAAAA
Experimental: (§1) Different LAMP1 proteins were expressed at the cell membrane of HEK293 cells after transient expression from mammalian plasmids encoding the entire coding sequence of LAMP1 deleted of the intracellular lysosome-targeting motif GYQTI and substituted by a 5-Ala repeat sequence.
(§2) Two days post transfection cells were processed, analyzed by flow cytometry (Guava® easyCyte™ 8HT) as mentioned in example 4.7, and the mean fluorescence was recorded. This fluorescence represents a semi-quantitative assessment of binding.

[2] = molecular target: T2, Hybrid LAMP1 / glycan-deleted LAMP1 transmembrane proteins (Homo sapiens, UniProt P11279, D66S/F65I/K57A/K61Q/M63V/N62I/P60S/S58N/T64N); conditions: pXL6014 LAMP1_mseq3_ΔGYQTI; Table 18
T2 construct: expressed in transfected cells; host or cells: 293-F (HEK293-derived), transient transfection
T2 sequence (P11279 with tags, fused parts or gaps K57A/S58N/P60S/K61Q/N62I/M63V/T64N/F65I/D66S): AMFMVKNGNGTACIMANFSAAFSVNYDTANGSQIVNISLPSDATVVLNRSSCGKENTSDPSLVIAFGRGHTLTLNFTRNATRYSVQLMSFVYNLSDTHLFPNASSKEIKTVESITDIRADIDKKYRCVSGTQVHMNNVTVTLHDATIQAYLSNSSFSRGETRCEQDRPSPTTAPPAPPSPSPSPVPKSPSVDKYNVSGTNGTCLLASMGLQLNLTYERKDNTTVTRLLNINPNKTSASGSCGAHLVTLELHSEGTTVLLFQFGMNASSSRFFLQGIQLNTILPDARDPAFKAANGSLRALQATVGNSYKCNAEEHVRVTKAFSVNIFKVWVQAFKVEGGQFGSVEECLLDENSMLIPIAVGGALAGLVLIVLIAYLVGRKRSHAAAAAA
Experimental: as §1, §2

[3] = molecular target: T3, Hybrid LAMP1 / glycan-deleted LAMP1 transmembrane proteins (Homo sapiens, UniProt P11279, D70S/L75K/R77G/S69A/T72E/V74L); conditions: pXL6015 LAMP1_mseq4_ΔGYQTI; Table 18
T3 construct: expressed in transfected cells; host or cells: 293-F (HEK293-derived), transient transfection
T3 sequence (P11279 with tags, fused parts or gaps S69A/D70S/T72E/V74L/L75K/R77G): T1 sequence (P11279 with tags, fused parts or gaps T85V/V91T/A93T) with S41A, D42S, T44E, V46L, L47K, R49G, V57T, T63V, T65A
Experimental: as §1, §2

[4] = molecular target: T4, Hybrid LAMP1 / glycan-deleted LAMP1 transmembrane proteins (Mus musculus, UniProt P11438, E181G/G176S/K180R/N177S/S175N); conditions: pXL6048 mLAMP1_hseq11_ΔGYQTI
T4 construct: expressed in transfected cells; host or cells: 293-F (HEK293-derived), transient transfection
T4 sequence (P11438 with tags, fused parts or gaps S175N/G176S/N177S/K180R/E181G): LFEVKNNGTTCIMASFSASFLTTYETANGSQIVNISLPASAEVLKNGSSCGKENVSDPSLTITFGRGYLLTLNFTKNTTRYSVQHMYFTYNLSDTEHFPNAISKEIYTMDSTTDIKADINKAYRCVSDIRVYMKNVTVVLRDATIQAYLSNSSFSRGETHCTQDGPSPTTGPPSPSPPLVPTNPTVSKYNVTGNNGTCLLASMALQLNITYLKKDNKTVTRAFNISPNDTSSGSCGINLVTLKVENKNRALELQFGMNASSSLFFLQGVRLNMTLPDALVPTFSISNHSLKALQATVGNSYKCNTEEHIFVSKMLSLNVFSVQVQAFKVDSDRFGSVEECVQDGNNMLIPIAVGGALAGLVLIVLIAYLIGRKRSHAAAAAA
Experimental: as §1, §2

[5] = molecular target: T5, Hybrid LAMP1 / glycan-deleted LAMP1 transmembrane proteins (Mus musculus, UniProt P11438, K100R/L93T/T102A/Y92H); conditions: pXL6047 mLAMP1_hseq6_ΔGYQTI
T5 construct: expressed in transfected cells; host or cells: 293-F (HEK293-derived), transient transfection
T5 sequence (P11438 with tags, fused parts or gaps Y92H/L93T/K100R/T102A): T4 sequence (P11438 with tags, fused parts or gaps S175N/G176S/N177S/K180R/E181G) with Y68H, L69T, K76R, T78A, N151S, S152G, S153N, R156K, G157E
Experimental: as §1, §2

[6] = test system: Hybrid LAMP1 / glycan-deleted LAMP1 transmembrane proteins; conditions: pXL6012 LAMP1_mseq1_ΔGYQTI; Table 18
Experimental: as §1, §2

Sequence of Hybrid LAMP1 / glycan-deleted LAMP1 transmembrane proteins (as listed by the source, stated change not applied): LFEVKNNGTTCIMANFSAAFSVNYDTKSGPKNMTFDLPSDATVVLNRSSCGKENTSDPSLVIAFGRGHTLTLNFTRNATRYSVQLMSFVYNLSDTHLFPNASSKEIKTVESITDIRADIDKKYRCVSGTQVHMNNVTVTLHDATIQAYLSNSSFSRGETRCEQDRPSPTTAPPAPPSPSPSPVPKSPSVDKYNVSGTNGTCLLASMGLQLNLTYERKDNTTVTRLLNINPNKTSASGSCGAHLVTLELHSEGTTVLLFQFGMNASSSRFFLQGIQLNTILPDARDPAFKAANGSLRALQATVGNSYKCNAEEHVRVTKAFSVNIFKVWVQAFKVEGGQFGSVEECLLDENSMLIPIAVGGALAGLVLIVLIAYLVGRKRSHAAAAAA

Binding call [1]: Binding | Mean fluorescence [1]: 846 | Binding call [2]: Binding | Mean fluorescence [2]: 888 | Binding call [3]: Binding | Mean fluorescence [3]: 891 | Binding call ([4]; Table 17 Experiment no1): No binding | Mean fluorescence ([4]; Table 17 Experiment no1): 6 | Binding call ([4]; Table 17 Experiment no2): No binding | Mean fluorescence ([4]; Table 17 Experiment no2): 2 | Binding call ([5]; Table 17 Experiment no1): No binding | Mean fluorescence ([5]; Table 17 Experiment no1): 7 | Binding call ([5]; Table 17 Experiment no2): No binding | Mean fluorescence ([5]; Table 17 Experiment no2): 3
B1: MAb1: murine monoclonal anti-LAMP1 antibody, VH SEQ ID NO: 1, VL SEQ ID NO: 5 (antibody, V domains shown)
VH: QVQLQQSGAELVKPGASVKMSCKASGYIFTNYNIHWVKKSPGQGLEWIGAIYPGNGDAPYSQKFKDKATLTADKSSSTTYMQLSRLTSEDSAVYYCVRANWDVAFAYWGQGTLVSVSA
VL: DIQMTQSPPSLSASLGGKVTITCKASQDIDRYMAWYQDKPGKGPRLLIHDTSTLQPGIPSRFSGSGSGRDYSFSISNLEPEDIATYYCLQYDNLWTFGGGTKLEIK
modifications: Antibody Fragment; antibody fragment
Mean fluorescence [6]: 1027

Binding call [1]: Binding | Mean fluorescence [1]: 629 | Binding call [2]: Binding | Mean fluorescence [2]: 694 | Binding call [3]: No binding | Mean fluorescence [3]: 27 | Binding call ([4]; Table 17 Experiment no1): No binding | Mean fluorescence ([4]; Table 17 Experiment no1): 28 | Binding call ([5]; Table 17 Experiment no1): No binding | Mean fluorescence ([5]; Table 17 Experiment no1): 25
B2: MAb2: murine monoclonal anti-LAMP1 antibody, VH SEQ ID NO: 8, VL SEQ ID NO: 12 (antibody, V domains shown)
VH: QVQLQQSAAELARPGASVKMSCKASGYTFTSYTMHWVKQRPGQGLEWIGYFNPSSGYPEYNQKFKDKTTLTADKSSNTAFIQLNSLTSEDSAVYYCSRGYYYGSRGYALDFWGQGASVTVSS
VL: NIVLTQSPVSLAVSLGQRATISCRASESVDINGNTFMHWYQQKPGQSPKLVIYAASNIESGVPARFSGSGSSTDFTFTIDPVEADDVATYYCQQNIEDPWTFGGGTKVEIK
modifications: antibod fragment; antibody fragment
Binding call [6]: Low binding | Mean fluorescence [6]: 105
